Source: the supplement of paper PMC9112550, “Optimization of the antimicrobial peptide Bac7 by deep mutational scanning” (BMC Biology, 2022)

tested on: Escherichia coli TOP10; experiment: shrunken log2 fold change of peptide-encoding DNA abundance (4.5 h post-induction vs induction); higher = less antimicrobial activity (less host growth inhibition); conditions: time post-induction: 4.5 h; library: site-saturation at positions 5, 18, 19, 20
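Note: peptides expressed intracellularly from a pBAD plasmid library in pooled LB shake-flask culture, induced with 0.3% L-arabinose, DNA abundance read by NGS, three biological replicates, DESeq2 with apeglm shrinkage.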

Sequence | shrunken log2 fold change
RRIRDRPPRLPRPRPRPMRWPRP | 0.274
RRIRFRPPRLPRPRPRPHKIPRP | -0.495
RRIRGRPPRLPRPRPRPHHAPRP | 0.254
RRIRVRPPRLPRPRPRPTVIPRP | -0.127
RRIRKRPPRLPRPRPRPSMCPRP | -0.472
RRIRERPPRLPRPRPRPYIQPRP | -0.184
RRIRTRPPRLPRPRPRPDKYPRP | -0.147
RRIRYRPPRLPRPRPRPKGYPRP | -0.0889
RRIRQRPPRLPRPRPRPQCSPRP | -0.203
RRIRRRPPRLPRPRPRPYWRPRP | 0.0363
RRIRFRPPRLPRPRPRPWEPPRP | -0.373
RRIRCRPPRLPRPRPRPMLNPRP | -0.38
RRIRWRPPRLPRPRPRPFYAPRP | -0.174
RRIRYRPPRLPRPRPRPGIQPRP | -0.0445
RRIRRRPPRLPRPRPRPSGKPRP | 0.845
RRIRHRPPRLPRPRPRPKICPRP | 0.0596
RRIRWRPPRLPRPRPRPRHNPRP | 0.576
RRIRNRPPRLPRPRPRPWCYPRP | -0.428
RRIRWRPPRLPRPRPRPYYIPRP | -0.459
RRIRKRPPRLPRPRPRPSQDPRP | 0.107
RRIRIRPPRLPRPRPRPGMLPRP | 0.0213
RRIRVRPPRLPRPRPRPHVDPRP | 0.0108
RRIRIRPPRLPRPRPRPTRGPRP | 0.0292
RRIRVRPPRLPRPRPRPNDAPRP | -0.231
RRIRHRPPRLPRPRPRPIEAPRP | -0.131

Sequence | shrunken log2 fold change
RRIRLRPPRLPRPRPRPDTSPRP | -0.114
RRIRWRPPRLPRPRPRPINMPRP | -0.328
RRIRARPPRLPRPRPRPIASPRP | -0.0816
RRIRMRPPRLPRPRPRPCKWPRP | 0.0169
RRIRPRPPRLPRPRPRPSRRPRP | -0.179
RRIRNRPPRLPRPRPRPHKVPRP | -0.513
RRIRFRPPRLPRPRPRPCPEPRP | -0.2
RRIRTRPPRLPRPRPRPFNMPRP | -0.692
RRIRGRPPRLPRPRPRPYHMPRP | -0.345
RRIRNRPPRLPRPRPRPREYPRP | 0.0336
RRIRLRPPRLPRPRPRPDVDPRP | 0.0667
RRIRFRPPRLPRPRPRPPAAPRP | 1.32
RRIRFRPPRLPRPRPRPKEVPRP | 0.0322
RRIRSRPPRLPRPRPRPPKFPRP | -0.479
RRIRPRPPRLPRPRPRPIFVPRP | -0.197
RRIRNRPPRLPRPRPRPDSNPRP | -0.0886
RRIRCRPPRLPRPRPRPGCMPRP | 0.00195
RRIRQRPPRLPRPRPRPRRIPRP | -0.27
RRIRWRPPRLPRPRPRPPLQPRP | 0.475
RRIRRRPPRLPRPRPRPVYTPRP | 0.0292
RRIRWRPPRLPRPRPRPFLCPRP | -0.139
RRIRHRPPRLPRPRPRPALHPRP | 0.111
RRIRDRPPRLPRPRPRPVDGPRP | 0.0169
RRIRMRPPRLPRPRPRPDVMPRP | 0.147
RRIRKRPPRLPRPRPRPPAEPRP | 1.07

Sequence | shrunken log2 fold change
RRIRLRPPRLPRPRPRPMDWPRP | -0.0759
RRIRSRPPRLPRPRPRPSKLPRP | -0.398
RRIRERPPRLPRPRPRPHLQPRP | -0.206
RRIRKRPPRLPRPRPRPASQPRP | 0.0905
RRIRFRPPRLPRPRPRPEECPRP | -0.0175
RRIRTRPPRLPRPRPRPHIKPRP | -0.616
RRIRKRPPRLPRPRPRPWLWPRP | 0.00796
RRIRQRPPRLPRPRPRPCIKPRP | 0.155
RRIRIRPPRLPRPRPRPKHFPRP | -0.292
RRIRHRPPRLPRPRPRPQKRPRP | -0.225
RRIRPRPPRLPRPRPRPHFCPRP | -0.353
RRIRERPPRLPRPRPRPSDRPRP | -0.165
RRIRHRPPRLPRPRPRPCIYPRP | -0.196
RRIRGRPPRLPRPRPRPRPSPRP | 0.49
RRIRGRPPRLPRPRPRPPPEPRP | 2.01
RRIRRRPPRLPRPRPRPHSCPRP | 0.0404
RRIRDRPPRLPRPRPRPRQCPRP | -0.0309
RRIRDRPPRLPRPRPRPWLGPRP | 0.109
RRIRGRPPRLPRPRPRPWYRPRP | -0.19
RRIRRRPPRLPRPRPRPKMAPRP | 0.201
RRIRNRPPRLPRPRPRPMCAPRP | -0.253
RRIRARPPRLPRPRPRPSFFPRP | 0.238
RRIRFRPPRLPRPRPRPHHMPRP | 0.335
RRIRIRPPRLPRPRPRPDTNPRP | -0.73
RRIRRRPPRLPRPRPRPLLVPRP | 0.329

Sequence | shrunken log2 fold change
RRIRWRPPRLPRPRPRPGDKPRP | -0.00136
RRIRARPPRLPRPRPRPRKMPRP | 0.521
RRIRYRPPRLPRPRPRPVCAPRP | -0.232
RRIRHRPPRLPRPRPRPGYAPRP | -0.163
RRIRARPPRLPRPRPRPRTMPRP | 0.403
RRIRRRPPRLPRPRPRPLLGPRP | 0.504
RRIRRRPPRLPRPRPRPGITPRP | -0.0143
RRIRIRPPRLPRPRPRPAYWPRP | -0.0439
RRIRHRPPRLPRPRPRPEPEPRP | 0.241
RRIRQRPPRLPRPRPRPPILPRP | -0.13
RRIRERPPRLPRPRPRPKMAPRP | 2.39
RRIRRRPPRLPRPRPRPDYDPRP | -0.0449
RRIRQRPPRLPRPRPRPEYLPRP | -0.00804
RRIRSRPPRLPRPRPRPHGPPRP | -0.0864
RRIRGRPPRLPRPRPRPFFLPRP | 0.301
RRIRMRPPRLPRPRPRPGYHPRP | 0.0695
RRIRLRPPRLPRPRPRPEDTPRP | -0.00686
RRIRIRPPRLPRPRPRPKMFPRP | 0.0072
RRIRARPPRLPRPRPRPMERPRP | 0.0157
RRIRMRPPRLPRPRPRPESMPRP | 2.6
RRIRFRPPRLPRPRPRPRRTPRP | 0.375
RRIRDRPPRLPRPRPRPLGTPRP | 0.706
RRIRHRPPRLPRPRPRPHNTPRP | -0.709
RRIRDRPPRLPRPRPRPRSLPRP | -0.0214
RRIRSRPPRLPRPRPRPAIAPRP | -0.00626

Sequence | shrunken log2 fold change
RRIRFRPPRLPRPRPRPCFIPRP | -0.564
RRIRVRPPRLPRPRPRPYYIPRP | -0.284
RRIRRRPPRLPRPRPRPNRIPRP | 0.0217
RRIRCRPPRLPRPRPRPCHQPRP | 0.0175
RRIRCRPPRLPRPRPRPGVYPRP | -0.0723
RRIRGRPPRLPRPRPRPNNNPRP | -0.0957
RRIRCRPPRLPRPRPRPTKAPRP | 0.209
RRIRQRPPRLPRPRPRPTELPRP | 0.124
RRIRMRPPRLPRPRPRPGRQPRP | -0.00182
RRIRLRPPRLPRPRPRPLRPPRP | 0.525
RRIRPRPPRLPRPRPRPKITPRP | -0.105
RRIRLRPPRLPRPRPRPGVEPRP | 0.0194
RRIRFRPPRLPRPRPRPLERPRP | -0.0153
RRIRDRPPRLPRPRPRPNYFPRP | -0.0536
RRIRPRPPRLPRPRPRPDMVPRP | -0.177
RRIRWRPPRLPRPRPRPFCTPRP | -0.137
RRIRSRPPRLPRPRPRPLRAPRP | 0.858
RRIRIRPPRLPRPRPRPRYRPRP | -0.386
RRIRMRPPRLPRPRPRPLIDPRP | 0.356
RRIRQRPPRLPRPRPRPTRGPRP | 0.287
RRIRRRPPRLPRPRPRPYARPRP | 0.0203
RRIRPRPPRLPRPRPRPHQHPRP | 2.05
RRIRNRPPRLPRPRPRPVWFPRP | -0.113
RRIRSRPPRLPRPRPRPSEKPRP | 0.029
RRIRKRPPRLPRPRPRPKAVPRP | -0.11

Sequence | shrunken log2 fold change
RRIRARPPRLPRPRPRPNRQPRP | 0.257
RRIRHRPPRLPRPRPRPHMNPRP | -0.491
RRIRPRPPRLPRPRPRPICQPRP | -0.0543
RRIRQRPPRLPRPRPRPGQSPRP | -0.0203
RRIRRRPPRLPRPRPRPIIGPRP | 0.327
RRIRIRPPRLPRPRPRPYIRPRP | -0.159
RRIRDRPPRLPRPRPRPRQMPRP | 0.019
RRIRERPPRLPRPRPRPSKQPRP | 0.0844
RRIRWRPPRLPRPRPRPCTWPRP | -0.217
RRIRCRPPRLPRPRPRPMQTPRP | 1.52
RRIRWRPPRLPRPRPRPWEIPRP | 0.124
RRIRIRPPRLPRPRPRPKQYPRP | -0.474
RRIRARPPRLPRPRPRPDLTPRP | 0.198
RRIRKRPPRLPRPRPRPNKRPRP | -0.0102
RRIRSRPPRLPRPRPRPGPYPRP | -0.325
RRIRFRPPRLPRPRPRPKVLPRP | -0.128
RRIRTRPPRLPRPRPRPSQIPRP | -0.0567
RRIRCRPPRLPRPRPRPLSNPRP | 0.504
RRIRARPPRLPRPRPRPTRTPRP | 0.653
RRIRIRPPRLPRPRPRPHEAPRP | -0.396
RRIRPRPPRLPRPRPRPRCFPRP | 0.155
RRIRTRPPRLPRPRPRPQAAPRP | -0.0432
RRIRKRPPRLPRPRPRPYCKPRP | 0.0355
RRIRWRPPRLPRPRPRPQYTPRP | -0.384
RRIRARPPRLPRPRPRPNVDPRP | 0.0662
